Laboratory results as given in paper PMC4558366.

Key:
Test in all cases: ITC
[1] = biological target: T1, UHRF1_(600-687) (human), Q96T88
T1 chain: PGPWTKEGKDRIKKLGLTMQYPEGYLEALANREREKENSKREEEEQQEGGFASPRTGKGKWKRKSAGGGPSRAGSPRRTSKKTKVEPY

[2] = biological target: T2, UHRF1_(647-678) (human), Q96T88
T2 chain: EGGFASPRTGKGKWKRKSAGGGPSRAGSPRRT

[3] = biological target: T3, UHRF1_(647-687) K659E (human), Q96T88
T3 chain: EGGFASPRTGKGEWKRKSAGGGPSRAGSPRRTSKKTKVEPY

[4] = biological target: T4, UHRF1_(SRA-RING) (residues 419-806) (human), Q96T88
T4 chain: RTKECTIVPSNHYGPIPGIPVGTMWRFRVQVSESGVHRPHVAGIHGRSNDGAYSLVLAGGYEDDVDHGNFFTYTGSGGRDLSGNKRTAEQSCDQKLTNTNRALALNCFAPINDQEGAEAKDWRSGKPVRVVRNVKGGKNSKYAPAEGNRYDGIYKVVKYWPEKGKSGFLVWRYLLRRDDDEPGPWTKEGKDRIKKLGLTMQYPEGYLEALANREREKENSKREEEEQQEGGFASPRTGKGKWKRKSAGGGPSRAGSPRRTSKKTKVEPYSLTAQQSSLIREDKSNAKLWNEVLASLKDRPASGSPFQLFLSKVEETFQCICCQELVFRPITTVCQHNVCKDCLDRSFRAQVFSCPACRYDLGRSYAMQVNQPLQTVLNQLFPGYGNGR

[5] = biological target: T5, UHRF1_(TTD-RING) (residues 138-806) (human), Q96T88
T5 chain: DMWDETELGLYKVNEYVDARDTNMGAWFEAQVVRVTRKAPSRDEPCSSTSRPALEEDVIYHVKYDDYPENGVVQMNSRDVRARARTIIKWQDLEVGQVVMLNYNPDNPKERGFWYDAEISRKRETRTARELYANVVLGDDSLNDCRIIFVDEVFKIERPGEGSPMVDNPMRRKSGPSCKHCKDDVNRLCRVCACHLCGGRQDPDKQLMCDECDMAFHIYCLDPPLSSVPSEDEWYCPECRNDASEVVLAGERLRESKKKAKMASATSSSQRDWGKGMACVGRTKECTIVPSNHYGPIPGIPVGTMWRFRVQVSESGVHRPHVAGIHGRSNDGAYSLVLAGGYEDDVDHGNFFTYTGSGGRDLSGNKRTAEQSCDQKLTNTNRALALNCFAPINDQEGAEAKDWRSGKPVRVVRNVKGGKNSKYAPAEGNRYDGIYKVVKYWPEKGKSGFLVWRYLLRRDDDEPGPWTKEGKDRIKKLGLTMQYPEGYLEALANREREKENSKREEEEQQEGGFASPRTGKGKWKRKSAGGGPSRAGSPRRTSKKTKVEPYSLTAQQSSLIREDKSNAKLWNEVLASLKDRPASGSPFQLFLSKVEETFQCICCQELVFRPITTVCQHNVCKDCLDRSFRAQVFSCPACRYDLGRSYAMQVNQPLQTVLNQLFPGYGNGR

Kd [1]: 1420 nM
Kd [2]: 1520 nM
fold reduction of binding affinity against wild type [3]: 38 fold
Kd [4]: 1300 nM
Kd [5]: 27200 nM
B1: USP7 UBL1-2 (first two UBL domains of USP7) (domain or fragment)
chain: EAHLYMQVQIVAEDQFCGHQGNDMYDEEKVKYTVFKVLKNSSLAEFVQSLSQTMGFPQDQIRLWPMQARSNGTKRPAMLDNEADGNKTMIELSDNENPWTIFLETVDPELAASGATLPKFDKDHDVMLFLKMYDPKTRSLNYCGHIYTPISCKIRDLLPVMCDRAGFIQDTSLILYEEVKPNLTERIQDYDVSLDKALDELMDGDIIVFQKDDPENDNSELPTAKEYFRDLYH
modifications: not checked
